Changes are numbered by the printed parent chain. Numbers in names are those of the source. Where two headings read alike, the source gives them in different places.

Series [1] deals with the molecule itself. Briefly: protein-induced fluorescence enhancement.
Series [2] deals with the molecule itself. Briefly: protein-induced fluorescence enhancement. The source holds these as a separate data set.
Series [3] has as its target cytoDATL (aa 1-415) K320G with super YFP at the C terminus (D. melanogaster, UniProt Q9VC57 1-415, K320G). Put plainly: FRET or BRET.

B1: cytoDATL (aa 1-415) G343C, K320T (domain or fragment)
chain: MGGSAVQVINASEEHTFVLNEDALSEVLMRDEVKDRFVCVVSVAGAFRKGKSFLLDFFLRYMYSKYVHHDATDWLGGESDPLEGFSWRGGSERDTTGILMWSDIFLHDYPNGDKIAIILLDTQGAFDSQSTVRDCATVFALSTMLSSVQIYNLSQNIQEDDLQHLQLFTEYGRLALADTGKKPFQRLQFLVRDWSFPYEAEYGALGGDKILKRRLEVSDKQHPELQSLRRHISSCFTEVACFLMPHPGLNVATNPKFDGRLQDITPEFKSSLRSLVPMLLAPDNLVYKEISGQRVRARDLIQYFQSYMNIYKGNELPEPTSMLVATAEANHLTAVAAAKELYCQLMEEVCGGTRPYLSTAHLQTEHLRVKDKALFQFAAKRKMGGEEFTEKFRKQLEDDLEEVFTNYQAHNESKN
modifications: Cy3 maleimide on the engineered cysteine G343C in the PIFE assays; unlabelled in cross-linking
B1: the binding result in series [1] is given as “binds”.

B2: cytoDATL (aa 1-415) G343C, K320N (domain or fragment)
chain: B1 chain with T320N
modifications: Cy3 maleimide on the engineered cysteine G343C in the PIFE assays; unlabelled in cross-linking
With B2, the binding result in series [1] is on record as “binds”.

B3: cytoDATL (aa 1-415) G343C, K320E, E328R (domain or fragment)
chain: B1 chain with T320E, E328R
modifications: Cy3 maleimide on the engineered cysteine G343C
Take B3: in series [2], the binding result is “binds”.

B4: cytoDATL (aa 1-415) G343C, P317G (domain or fragment)
chain: B1 chain with P317G, T320K
modifications: Cy3 maleimide on the engineered cysteine G343C in the PIFE assays; unlabelled in cross-linking
With B4, the binding result in series [1] is “binds”.

B5: cytoDATL (aa 1-415) G343C, K320M (domain or fragment)
chain: B1 chain with T320M
modifications: Cy3 maleimide on the engineered cysteine G343C in the PIFE assays; unlabelled in cross-linking
With B5, the binding result in series [1] was “binds”.

B6: cytoDATL (aa 1-415) K320G with mCerulean3 at the C terminus (domain or fragment)
chain: B1 chain with T320G, C343G
As for B6, the binding result in series [3] is reported as “binds”.

B7: cytoDATL (aa 1-415) G343C, K320G (domain or fragment)
chain: B1 chain with T320G
modifications: Cy3 maleimide on the engineered cysteine G343C in the PIFE assays; unlabelled in cross-linking
On to B7, for which the binding result in series [1] is “binds”.

The values above are taken from paper PMC5412568 (The Journal of Cell Biology, 2017).
